From patent US12624096B2, “Anti-tau antibodies and methods of use thereof” (GTInvent Limited, priority 2020, dated 2026)
Where a chain is given by its changes, count along the chain named.

B1: CA9: anti-tau clone, SEQ ID NO: 371 (protein)
scFv: QVQLQESGPSLVKPSQTLSLTCTVSGFSLTSNSVGWVRQAPGKAPEWVAGIDTDGEEGYNPALNSRLSITRDTSKSQVSLSLSSVTSEDTAVYYCGRSYRSDGLAYGYVQAIDYWGPGLLVTVSSEGKSSGASGESKVDDQAVLTQPASVSGSLGQRVSITCSGSFIGISSVGWFQQLPGSGLRTIIVASDGRPSGVPDRFSMSKSGNTATLTISSLQAEDEADYFCGSSDRTQYTGVFGSGTRLTVLG
modifications: CA9 amino acid sequence
B2: S1E12: anti-tau clone, SEQ ID NO: 218 (protein)
scFv: B1 scFv with T30G, S101A, Q141R, A142V, L144R, A148S
modifications: S1E12 amino acid sequence
B3: CA9 scAb (protein)
scFv: B1 scFv
modifications: left off: small tags and cut ends
B4: CA4: anti-tau clone, SEQ ID NO: 368 (protein)
chain: QVQLQESGPSLVKPSQTLSLTCTVSGFSLTSYSVYWVRQAPGQALEWISIMYASGRVDYNPALKSRLSITRDTSKSQFSLSLSSVTTEDTAVYYCTRGIENWGPGLLVTVSSEGKSSGASGESKVDDDIQVTQSPSSLSASLTERVSITCRTSQSVNNYLSWYQQKPGQAPKLLIYYATRLYTDVPSRFSGSGSGTDYTLTITSLEADDTATYYCLQYDSTPLAFGGGTNVEIK
modifications: CA4 amino acid sequence
B5: CA12: anti-tau clone, SEQ ID NO: 372 (protein)
scFv: QVQLQGSGPSLVKPSQTLSLTCTVSGFSFDSYYVGWVRQAPGKALEWLGNIYSTGRAFYNPALKSRLSITRDTSKSQVSLSVSSVTIEDTALYYCVRGSYYHGGGNGMVDFFDYWSPGLLVTVSSEGKSSGASGESKVDDQVVRTQPSSVSGSLGQRVSITCSGSSSNVGYGNYVGWFQQVPGSAPKLLIYAATSRASGVPDRFSGSRSGNTATLTIDSLQAEDEADYYCSSYQRGNTGVFGSGTRLTVLG
modifications: CA12 amino acid sequence
B6: CA12 scAb (protein)
scFv: B5 scFv
modifications: left off: small tags and cut ends

Assays:
[1] = tested on: alanine substituted 13mer tau peptides; assay: Alanine scanning mutagenesis (ASM) peptide ELISA; format: binding, human; details: numbering according to SEQ ID NO: 1; description text 'may be'
Procedure: To further elucidate epitopes of the scAb panel, and identify the critical amino acids needed for binding, alanine scanning mutagenesis of the parent 13 aa peptides for scAbs CE2, S1D12, CA4 and S1G2 was performed. […] Briefly, 5 μg/ml streptavidin (Thermo Fisher) was adsorbed to Nunc 96-well MaxiSorp plates and following incubation at 37° C., for 1 h, the plates were washed as normal and blocked with 2% MPBS. N-terminally biotinylated peptides (Prolmmune Ltd) were added to the plates and incubated for 1 h at 37° C. Subsequently, test scAbs at starting concentrations of 100-500 nM was added and double diluted across the plate for each peptide and incubated for 1 h at 37° C. Rest of the ELISA was conducted as described above and the plates were read at absorbance 450 nm. Immunoreactivity of the scAb of interest was quantified as the % of scAb was bound for each peptide at a chosen concentration (FIG. 15-20).

dGA = dGA (Homo sapiens, UniProt P10636); assay: Biacore X100 SPR, scAb captured via anti-HuCk, dGA as analyte; format: binding; details: dissociation rate
Chain of dGA (P10636 614-707): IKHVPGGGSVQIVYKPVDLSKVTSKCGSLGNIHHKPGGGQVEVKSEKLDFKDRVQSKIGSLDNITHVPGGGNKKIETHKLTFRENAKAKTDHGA
Procedure: (§1) Surface plasmon resonance (SPR) is widely regarded as the gold standard for real time measurement of protein-protein interactions such as antibody binding. All SPR experiments were carried out using a Biacore X100 machine and HBS EP+ running buffer (GE Healthcare). A ‘capture’ method was followed for affinity measurements, where an anti-human constant kappa chain (HuCk) antibody was conjugated to the surface of a CM5 sensor chip using an amine coupling kit and scAb molecules were immobilised via their HuCk domain. Amine coupling is a very common approach for immobilising the ligand to the chip surface. The chip surface has a dextran matrix derivatised with carboxyl groups, which after activation with N-hydroxysuccinimide (NHS) and 1-ethyl-3-(3-dimethylaminopropyl) carbodiimide (EDC), form reactive succinimide esters which allows the covalent capturing of the ligand via any available primary amine groups (e.g. Lysine) on the ligand (in this case anti-HuCk antibody). The capture antibody was diluted 1/100 in 10 mM Sodium acetate buffer pH 5.0 and passed over the activated chip surface for a period of at least 420 s. Final ligand immobilisation levels over 12,000 RU were deemed to be satisfactory.
(§2) Following immobilisation, the level of each scAb to be captured was identified using the standard SPR equation with a theoretical RMax of 100 RU. Analyte MW refers to the molecular weight of hT40 or dGA/dGAE molecules, while ligand MW refers to the molecular weight of the scAbs tested. RL is the desired capture level and S refers to the stoichiometric ratio:
(§3) The scAb to be tested was added only to flow cell 2 so that flow cell 1 could act as a control to subtract any interaction with the analyte and the chip surface. Both single and multi-cycle runs were utilised using wizards developed in the Biacore X100 control software which are both accepted methods of kinetic analysis (Karlsson, R., et al. Analyzing a kinetic titration series using affinity biosensors (2006) Analytical Biochemistry 349:136-47). The multi-cycle protocol was as follows-Three start-up cycles composed of an initial capture, to the desired level, of the scAb to be tested was performed followed by a 30 s injection of glycine buffer pH 2.0 after each cycle to regenerate the chip surface. The regeneration step removed any captured scAb whilst leaving the capture antibody intact and able to repeat the capture for the next cycle. Following three start-up cycles increasing concentrations (0.15625 nM-100 nM) of the target to be tested were added to the chip surface after the desired scAb capture. The target was added for a 120 s association period and 420 s dissociation period followed by another regeneration, 30 s injection of glycine buffer pH 2.0 in between each cycle.
(§4) The single cycle kinetics protocol was similar and utilised the same level of scAb capture. Three start-up cycles were used followed by 5 increasing concentrations of the analyte (6.25 nM-100 nM) for an association period of 120 s followed by a dissociation period of 420 s for each concentration. In single cycle kinetics the regeneration step was performed only after the final analyte concentration was added. Binding responses were analysed in Biacore X100 evaluation software and data fitted to a 1:1 binding model to obtain kinetic and affinity characterisation.

hT40 = hT40 (Homo sapiens, UniProt P10636); assay: Biacore X100 SPR, scAb captured via anti-HuCk, hT40 as analyte; format: binding; details: scAb, Table 23, T441 (hT40)
Chain of hT40 (P10636 1-441 isoform P10636-8): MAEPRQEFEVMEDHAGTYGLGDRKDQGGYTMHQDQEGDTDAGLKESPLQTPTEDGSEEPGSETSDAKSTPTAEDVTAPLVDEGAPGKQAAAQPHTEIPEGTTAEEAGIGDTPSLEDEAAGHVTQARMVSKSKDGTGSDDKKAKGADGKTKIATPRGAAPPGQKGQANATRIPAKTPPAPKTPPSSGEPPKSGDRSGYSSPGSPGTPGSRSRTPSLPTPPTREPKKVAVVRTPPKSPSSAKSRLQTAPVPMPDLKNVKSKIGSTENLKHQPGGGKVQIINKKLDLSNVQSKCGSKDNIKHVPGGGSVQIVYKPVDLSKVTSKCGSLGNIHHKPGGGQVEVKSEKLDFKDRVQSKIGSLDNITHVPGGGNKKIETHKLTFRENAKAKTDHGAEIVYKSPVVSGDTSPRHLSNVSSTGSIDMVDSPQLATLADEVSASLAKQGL
Procedure: as §1, with “The chip surface has a dextran matrix derivatised with carboxyl groups, which after activation with N-hydroxysuccinimide (NHS) and 1-ethyl-3-(3-dimethylaminopropyl) carbodiimide (EDC), form reactive succinimide esters which allows the covalent capturing of the ligand via any available primary amine groups (e.g. Lysine) on the ligand (in this case anti-HuCk antibody).” left out
as §2
as §3, with “The regeneration step removed any captured scAb whilst leaving the capture antibody intact and able to repeat the capture for the next cycle.” left out
as §4

dGAE aggregates = dGAE aggregates (Homo sapiens, UniProt P10636); assay: Sandwich ELISA on SDS/Triton X-100 treated dGAE aggregates; format: binding
Chain of dGAE aggregates (P10636 614-708): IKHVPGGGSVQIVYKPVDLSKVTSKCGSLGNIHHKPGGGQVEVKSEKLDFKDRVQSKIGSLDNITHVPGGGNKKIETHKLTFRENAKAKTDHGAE
Procedure: For aggregation, 1000 μL 100 μM dGAE+10 μL 10 mM DTT was added to a ‘LoBind’ microfuge tubes and agitated at 700 RPM/37° C., for 24 hours. Resulting sample centrifuged at 17,000×g/4° C., for 60 min and supernatant discarded to remove left over monomer. Pellet resuspended in half the original volume for future experiments and hereafter referred to as ‘aggregates’. 1 μl of aggregates was added to 1 ml of PBS and SDS was added to a final concentration of 1% (w/v). This was left to incubate on lab bench for 1 h with gentle agitation every 15 minutes. In order to neutralise the SDS effect on ELISA, Triton X-100 added to a final concentration of 3% (v/v) and mixed gently by pipetting to prevent any bubble formation. […] Similarly aggregates treated with only SDS or Triton X-100, untreated aggregates, dGAE monomers treated with only SDS or SDS+Titon X-100 were also added to designated wells as controls. All samples were then double diluted across the plate in final volumes of 100 μl. The final column was left with no protein to act as a blank. This was allowed to stand at room temperature for 1 hour followed by the addition of detection scAb-S1G2 at 10 μg/ml. Anti-HuCk HRP labelled secondary antibody was added as described previously and ELISA data generated was represented using the graph below. In addition, limits of detection (LoD) of various core binding antibody pairing for SDS Triton X-100 treated dGAE aggregates were calculated using the above describe ELISA method and substituting capture mAbs and detection scAbs as shown in Table 30.

htau40 = htau40 (Homo sapiens, UniProt P10636); assay: Biacore X100 SPR of anti-tau mAbs on immobilised htau40; format: binding; details: mAb, Table 27, immobilised hT40
Chain of htau40 (P10636 1-441 isoform P10636-8): as the sequence (P10636 1-441 isoform P10636-8) above
Procedure: For anti-tau mAb SPR measurements, htau40 was conjugated to the surface of a CM5 sensor chip using amine coupling as explained previously. Briefly, 2 μg/mL htau40 in 10 mM Sodium acetate buffer (pH 4.0) was passed over the activated chip surface (EDC/NHS) in flow cell 2 for a period for 45 s followed by blocking with 1 M ethanolamine-HCl PH 8.5. Flow cell 1 was set up as reference control and blocked simultaneously. Final immobilisation level of htau40 (Rmax) was approximately 250 RU. Following a minimum of three start-up cycles, increasing concentrations (0.78 nM-25 nM) of the mAb in HBS-EP+ buffer was added at a rate of 30 μL/min to the chip. The mAb was added for a 120 s association period and 600 s dissociation period followed by a regeneration cycle of 30 s injection of glycine buffer pH 1.5 in between each cycle. Binding responses were analysed in Biacore X100 evaluation software and data fitted to a 1:1 binding model to obtain kinetic and affinity characterisation.
For anti-tau mAb SPR measurements (Biacore X100™) and epitope mapping, the same methodologies described above (see Example 16) were followed. Kinetic rates and equilibrium binding constants of additional anti-tau mAbs and the regions recognised on hT40 are given in the Table 25 below

[2] = S1D12 mAb capture, +SDS Triton dGAE agg.
[3] = direct immobilisation of dGAE aggregates, +SDS Triton

Molecule | Critical residues of the epitope [1] | ka (hT40) [M⁻¹ s⁻¹] | kd (hT40) [s⁻¹] | LoD (dGAE aggregates; [2]) [ng/mL] | LoD (dGAE aggregates; [3]) [ng/mL] | other results
B1 | 370 (K), and/or 374 (H) | – | – | – | – | –
B2 | – | 385000 | 0.000319 | – | – | Kd (dGA): 0.001627 s⁻¹
B3 | – | – | – | 4 | 40 | –
B4 | 358 (D), 360 (I), 361 (T), 362 (H) and/or 364 (P) | 458100 | 0.001654 | – | – | ka (htau40): 1.02e+06 M⁻¹ s⁻¹; kd (htau40): 0.001276 s⁻¹
B5 | 370 (K), and/or 374 (H) | – | – | – | – | –
B6 | – | – | – | 2 | 16 | –
